Where no end group is shown, it is not given here. [ ]: non-standard residue; d: D form. pY = N[C@@H](Cc1ccc(OP(=O)(O)O)cc1)C(=O)O
Legend:
HLA DPB1*02:01 = biological target: T1, HLA DPB1*02:01 (human); test: competition with radiolabeled peptide, purified HLA
T1 chain 1: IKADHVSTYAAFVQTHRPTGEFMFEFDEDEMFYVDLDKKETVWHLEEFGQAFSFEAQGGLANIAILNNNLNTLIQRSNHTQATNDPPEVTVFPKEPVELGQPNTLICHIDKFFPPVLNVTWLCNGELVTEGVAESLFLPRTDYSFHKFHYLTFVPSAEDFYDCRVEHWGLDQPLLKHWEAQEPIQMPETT
T1 chain 2: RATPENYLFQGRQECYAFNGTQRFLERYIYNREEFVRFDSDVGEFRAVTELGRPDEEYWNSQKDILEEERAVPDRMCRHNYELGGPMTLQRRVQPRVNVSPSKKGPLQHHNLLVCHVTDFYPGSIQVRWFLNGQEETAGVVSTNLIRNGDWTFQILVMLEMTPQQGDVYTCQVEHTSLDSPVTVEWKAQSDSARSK

HLA DPB1*04:01 = biological target: T2, HLA DPB1*04:01 (human); test: as above
T2 chain 1: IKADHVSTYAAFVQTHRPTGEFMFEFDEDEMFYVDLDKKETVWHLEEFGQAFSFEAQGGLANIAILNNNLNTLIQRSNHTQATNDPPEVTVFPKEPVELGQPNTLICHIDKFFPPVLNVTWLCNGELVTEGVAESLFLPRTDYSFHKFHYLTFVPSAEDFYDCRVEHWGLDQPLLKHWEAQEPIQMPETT
T2 chain 2: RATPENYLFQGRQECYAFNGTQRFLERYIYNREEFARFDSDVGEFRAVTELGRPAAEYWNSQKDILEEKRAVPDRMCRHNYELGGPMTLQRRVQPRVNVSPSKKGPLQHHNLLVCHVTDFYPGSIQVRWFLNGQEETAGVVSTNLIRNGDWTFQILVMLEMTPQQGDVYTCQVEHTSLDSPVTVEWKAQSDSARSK

HLA DPB1*04:02 = biological target: T3, HLA DPB1*04:02 (human); test: as above
T3 construct: purified HLA class II molecule; only the beta-chain allele is printed

HLA DPB1*05:01 = biological target: T4, HLA DPB1*05:01 (human); test: as above
T4 construct: purified HLA class II molecule; only the beta-chain allele is printed

HLA A*11:01 = biological target: T5, HLA A*11:01 (human); test: competition with radiolabeled peptide, purified HLA A*11:01
T5 construct: purified HLA A*11:01 molecules

HLA DQB1*04:02 = biological target: T6, HLA DQB1*04:02 (human); test: competition with radiolabeled peptide, purified HLA
T6 construct: purified HLA class II molecule; only the beta-chain allele is printed

HLA DQB1*05:01 = biological target: T7, HLA DQB1*05:01 (human); test: as above
T7 construct: purified HLA class II molecule; only the beta-chain allele is printed

HLA DRB1*04:01 = biological target: T8, HLA DRB1*04:01 (human); test: as above
T8 construct: purified HLA class II molecule; only the beta-chain allele is printed

HLA DRB3*01:01 = biological target: T9, HLA DRB3*01:01 (human); test: as above
T9 construct: purified HLA class II molecule; only the beta-chain allele is printed

B1: alpha-syn peptide aa32KTKEGVLYVGSKTKEaa46 phosphorylated at Y39 (peptide)
peptide: KTKEGVL[pY]VGSKTKE
notes: synthetic post-translationally modified 15-mer; also called Phospho-Y
IC50 (HLA DPB1*02:01): 620 nM
IC50 (HLA DPB1*04:01): 937 nM
IC50 (HLA DPB1*04:02): 1600 nM
IC50 (HLA DPB1*05:01): 777 nM

VLYVGSKTK (synthetic 9-mer; also called the 9 mer) [alpha-syn peptide aa37VLYVGSKTKaa45]
IC50 (HLA A*11:01): 161 nM

DNEAYEMPSEEGYQD (synthetic 15-mer of alpha-synuclein) [alpha-syn peptide aa121DNEAYEMPSEEGYQDaa135]
IC50 (HLA DQB1*04:02): 51 nM
IC50 (HLA DQB1*05:01): 7 nM
IC50 (HLA DRB1*04:01): 76 nM
IC50 (HLA DRB3*01:01): 787 nM

From patent US20200095296A1 (TRUSTEES OF COLUMBIA UNIVERSITY IN THE CITY OF NEW YORK, published 2020)
